The assay has as its target human Nav1.7 (sodium channel protein type 9 subunit alpha) (human) (UniProt Q15858). The experiment in a line: cell-based or functional assay.

For wild type Protoxin-II (peptide), the IC50, FLIPR assay came to 4 nM.

(Values after patent US20150099705A1.)
